Laboratory results from paper doi:10.1101/2020.09.01.276469 (bioRxiv, 2020).

T1: TPX2 amino acids 1-260 (Xenopus laevis, UniProt Q6NUF4 1-260)
T1 sequence (looked up): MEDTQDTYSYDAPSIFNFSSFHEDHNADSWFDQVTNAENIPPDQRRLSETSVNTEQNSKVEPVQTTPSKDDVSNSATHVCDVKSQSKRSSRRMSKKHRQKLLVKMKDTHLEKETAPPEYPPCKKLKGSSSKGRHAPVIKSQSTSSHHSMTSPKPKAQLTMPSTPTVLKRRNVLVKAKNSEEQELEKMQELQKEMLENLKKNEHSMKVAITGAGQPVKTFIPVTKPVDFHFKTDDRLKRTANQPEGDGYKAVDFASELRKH

T2: TPX2 amino acids 1-178 (Xenopus laevis, UniProt Q6NUF4 1-178)
T2 sequence (looked up): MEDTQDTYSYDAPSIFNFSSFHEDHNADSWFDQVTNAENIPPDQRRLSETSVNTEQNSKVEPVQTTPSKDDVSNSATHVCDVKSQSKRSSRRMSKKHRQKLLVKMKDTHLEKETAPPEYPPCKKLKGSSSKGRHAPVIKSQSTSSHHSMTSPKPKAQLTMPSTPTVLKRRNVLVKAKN

B1: TPX2 N-terminus (a.a. 1-480) (domain or fragment, Xenopus laevis, UniProt Q6NUF4 1-480, looked up)
chain: MEDTQDTYSYDAPSIFNFSSFHEDHNADSWFDQVTNAENIPPDQRRLSETSVNTEQNSKVEPVQTTPSKDDVSNSATHVCDVKSQSKRSSRRMSKKHRQKLLVKMKDTHLEKETAPPEYPPCKKLKGSSSKGRHAPVIKSQSTSSHHSMTSPKPKAQLTMPSTPTVLKRRNVLVKAKNSEEQELEKMQELQKEMLENLKKNEHSMKVAITGAGQPVKTFIPVTKPVDFHFKTDDRLKRTANQPEGDGYKAVDFASELRKHPPSPVQVTKGGHTVPKPFNLSKGKRKHEEASDYVSTAEQVIAFYKRTPARYHLRSRQREMEGPSPVKMIKTKLTNPKTPLLQTKGRHRPVTCKSAAELEAEELEMINQYKFKAQELDTRILEGGPVLLKKPLVKEPTKAIGFDLEIEKRIQQREKKEEIEEETFTFHSRPCPSKMLTDVVGVPLKKLLPVTVPQSPAFALKNRVRIPAQEEKQEEMVPVI
B2: importin-α/β heterodimer (GST-importin-α bound to importin-β) (complex)
chain 1: not shown
chain 2: MELVTILEKTVSPDRNELEAAQKFLEQAAVENLPTFVVELSKVLANPANSQVARVAAGLQIKNPLTSRDPDVKAQYQQRWLAIDASARGEIKTYVLRTLGTESYRPSSASQCVAGIACAEITVNQWPQLIPQLVANVTDPNSTERMKESTLEAIGYICQDIDPEQLQHKSNEILTAIIQGMRKEEPSNNVRLAATNALLNSLEFTKANFDKESERHYIMQVVCEATQCPDTRVRVAALQNLVKIMSLYYQYMETYMGPALFAITVEAMKNEIDEVALQGIEFWSNVCDEEMDLAIEASEAAEQGRPPEHTSKFYAKGALQYLVPILTQTLTKQDENDDDDDWNPCKAAGVCLMLLATCCEDDIVPHVLPFIKEHIKNPDWRYRDAAVMAFGCILEGPESCQLKPLVIQAMPTLIELMKDPSVVVRDTTAWTVGRICELLPEAAINDVYLAPLLQCLIEGLGAEPRVASNVCWAFSSLAEAAYEAADVADDQEEPSSYCLSSSFEVIVQKLLETTDRPDGHQNNLRSAAYEALMEIVKNSAKDCYPAVQKTTLVIMERLQQVLQVESHIQSTSDRIQFNDLQSLLCATLQNVLRKVQHQDALQISDVVMASLLRMFQSTAGSGGVQEDALMAVSTLVEVLGAEFLKYMEAFKPFLTIGLKNYAEYQVCLAAVGLVGDLCRALQSNILPFCDEMMQFLLENLGNENVHRSVKPQILSVFGDVALAIGGEFKKYLDVVLNTLQQASQAQVDKSDYDMVDYLNELREGCIEAYTGIIQGLKGDQENVHPDVMLVQPRVEFILSFIDHIAGDEDHTDSVVACGAGLIGDLCTAFGKDVLKLVEARPMIHELLTEGRRSKTNKTKTLATWATKELRKLKNQA
B3: importin-β (natural protein, Xenopus laevis, UniProt P52297 1-876, looked up)
chain: B2 chain 2
B4: Targeting Protein for XKlp2 (TPX2), full length, GFP-tagged (natural protein, Xenopus laevis, UniProt Q6NUF4 1-716, looked up)
chain: MEDTQDTYSYDAPSIFNFSSFHEDHNADSWFDQVTNAENIPPDQRRLSETSVNTEQNSKVEPVQTTPSKDDVSNSATHVCDVKSQSKRSSRRMSKKHRQKLLVKMKDTHLEKETAPPEYPPCKKLKGSSSKGRHAPVIKSQSTSSHHSMTSPKPKAQLTMPSTPTVLKRRNVLVKAKNSEEQELEKMQELQKEMLENLKKNEHSMKVAITGAGQPVKTFIPVTKPVDFHFKTDDRLKRTANQPEGDGYKAVDFASELRKHPPSPVQVTKGGHTVPKPFNLSKGKRKHEEASDYVSTAEQVIAFYKRTPARYHLRSRQREMEGPSPVKMIKTKLTNPKTPLLQTKGRHRPVTCKSAAELEAEELEMINQYKFKAQELDTRILEGGPVLLKKPLVKEPTKAIGFDLEIEKRIQQREKKEEIEEETFTFHSRPCPSKMLTDVVGVPLKKLLPVTVPQSPAFALKNRVRIPAQEEKQEEMVPVIKATRMPHYGVPFKPKLVEQRQVDVCPFSFCDRDKERQLQKEKRLDELRKDEVPKFKAQPLPQFDNIRLPEKKVKMPTQQEPFDLEIEKRGASKLQRWQQQIQEELKQQKEMVVFKARPNTVVHQEPFVPKKENRSLTESLSGSIVQEGFELATAKRAKERQEFDKCLAETEAQKSLLEEEIRKRREEEEKEEISQLRQELVHKAKPIRKYRAVEVKASDVPLTVPRSPNFSDRFKC
B5: importin-αΔIBB (importin-α without the importin-β binding domain) (domain or fragment)
chain: not shown

Key:
[1] = target: B3; test: BLI
[2] = target: B4; test: SEC-MALS
[3] = target: GST-importin-α (full length) (Xenopus laevis); test: SEC-MALS
[4] = target: B2; test: BLI
[5] = target: the molecule itself; test: SEC-MALS
[6] = target: B4; test: BLI
[7] = target: T1, TPX2 amino acids 1-260; test: BLI
[8] = target: T2, TPX2 amino acids 1-178; test: BLI

Binder: B1
- Kd [1]: 512 ± 70 nM

Binder: B2
- stoichiometry N [2]: 1

Binder: B3
- stoichiometry N [3]: 1

Binder: B4
- Kd [4]: 75 ± 15 nM
- Kd [1]: 530 ± 75 nM

Binder: B5
- stoichiometry N [2]: ≥ 1
- stoichiometry N [5]: 2
- Kd [6]: 61 ± 10 nM
- Kd [7]: 20 ± 4 nM
- Kd [8]: 15 ± 3 nM
